Test results from the DeepSol protein solubility set.

Assay: soluble on expression in E. coli; label from the status in PepcDB or PDB records

| Sequence | soluble on expression in E. coli |
| --- | --- |
| MGSDKIHHHHHHMKPTLFVLAAGMGSRYGSLKQLDGIGPGGDTIMDYSVYDAIRAGFGRLVFVIRHSFEKEFREKILTKYEGRIPVELVFQELDRLPEGFSCPEGREKPWGTNHAVLMGRDAIREPFAVINADDFYGRNGFEVLARKLMTLEGKQGEYCMVGYRVGNTLSESGGVSRGVCQVDEKHLLTGVVERTGIERTDGTISFRDETGKICTLAEDAPVSMNMWGFTPDYFDYSEELFINFLNAHGQEPKSEFFIPFVVNDLIRSGRASVEVLDTTARWFGVTYSDDRPGVVAKLRELTEAGEYPTKLF | not soluble |
| MAHHHHHHMYNFFASVNAPSTPPQKQPQVEPSLPPSACHHHVAASSLLDGMTAHNASLWLLNASQQRSLSYAHSGGGGDNLAGAEQEKRTAASQFYSTFPTAAAPPPSSGVQSLHGVGQQPAQQPHKHLCTSILQSYEHVGNSATPAPGLSSSLPLQEHQSSTWVTLRGGSLRMQLDGVPYSPFASTNASAASQPPDAAHGNEQYYDSTSHHRGYSASSASSIRHTLQVPASPQQQHQQQRLPISSSVWTAATPATAMPASLFASSSIRPLTNTTYPGYSCDWSGNALPTLPAAVPAPYVSGAALPVSSRSQTTYSVMPQPPQSGQPCSPTAHPATHSIMILHPTLDRGTAAILQASADAVNTPLHCLTDVKASEISGTTHYLEVVQGGGSVGDNSKHSYPSSIPIASRQPQPPLQQYYLQPTPQQHQQGQQLAAEQPPVHSCFLTNDGNMSHFVNHTTAAGAIIQPPSSMLSDIASLASLSSRTAGAGRSGAWQQPSTADMGSYKDQSSKLQLQQQQQQQQQQRRPVSAARQVTYTRGIPRRNRDRAVLFVGQLNYEATEADVSQVFSCYGKPLSVVVLKDKGKATKKGGAGGITGGSAATHRKVGGSAFVTYGTTLEADTAIMALHGRYNAKGDDVENVDNSKYLQVSYGQQTGLISAFGMMHAEKLHASKPENPIPLLVKDRTNGKL | not soluble |
| MPNNEASEEAKWYVVHTYSGYENKVKANLEKIVENRNLQDYILDIVVPMEEQIEIKDGKKKASLKKVFPGYVLVKMIMNDESWYVVRNTRGVTGFVGPGSKAVPLTDEEIRAMGVEEFAPVLDYEVGDNVRVVSGPLENFIGIVEEINLEKKKVRVSVSMFGRETPVELELHQIQKI | soluble |
| MYRVFECFDELIDILEKSTGVPMTSNCMVPRHHMLALIDEARNALPNEIDDAQDVIDQQDEILRGAQERARTTIDEANEEARRTVTQSREEADALVADAEEHAERVVRQAQDEADRLVDGARREADDTVNRAQAEAERLIASGNDQYQRSVDDGLAEQQRLVSEAEVVRRANEEAHRVVDAAHADSNRLRKECDTFVENKLADLEESLSSTLRTISRDRAALRRGAGASGGGNHSQS | not soluble |
| MLKILKRIVQDVTAASDLKEALGILVQRINTAINAEAVSVYLIDNKNAEYVLIATEGLNKQAEFRVRIALDCGLIGLIGRREEPINIENAPSHPDFYHNPLIGEDHLNAFLGVPIIQHRKLYGVLVVQQLEQRYFDDAEESFLITLAAQLGGIIAHAEATGELAELTQ | not soluble |
| QYYDYDFPLSIYGQSSPNCAPECNCPESYPSAMYCDELKLKSVPMVPPGIKYLYLRNNQIDHIDEKAFENVTDLQWLILDHNLLENSKIKGRVFSKLKQLKKLHINHNNLTESVGPLPKSLEDLQLTHNKITKLGSFEGLVNLTFIHLQHNRLKEDAVSAAFKGLKSLEYLDLSFNQIARLPSGLPVSLLTLYLDNNKISNIPDEYFKRFNALQYLRLSHNELADSGIPGNSFNVSSLVELDLSYNKLKNIPTVNENLENYYLEVNQLEKFDIKSFCKILGPLSYSKIKHLRLDGNRISETSLPPDMYECLRVANEVTLN | not soluble |
| MGGLSAQSTAATATMGGKNKQRTKGNLRPSNSGRAAELLAKEQGTVPGFIGFGTSQSDLGYVPAIQGAEEIDSLVDSDFRMVLRKLSKKDVTTKLKAMQEFGTMCTERDTETVKGVLPYWPRIFCKISLDHDRRVREATQQAFEKLILKVKKQLGPYLKSLMGYWLMAQCDTYTPAAFAAKDAFEAAFPPSKQPEAIAFCKDEITSVLQDHLIKETPDTLSDPQTVQRKKEKLNSTGLLEHHHHHH | not soluble |
| NEHSKWMILDRVRFTLDGLECDKIGVGYEAYRNQPNFCSAPYGSCLGNQLWNFWEYDKRRIDNSQLPLYIVEGRFQRINQHPNAGAHTFSVGVTEDLNTNLLIELMADDIEYVYQRSPAKIIDIRVPTFEALSQVGIANVTTKNIGKLESSYSLTFKCSSGISPVEEQLYTMKPDEVIARSFELRSTTDQAAMHQCEAILKASDFSELDREGYRFSTAATVYNNGAQIGPTNDHKKGGFWDSIKALWRNLIDFLTGRLCWTKCPRLFDFGCHI | not soluble |
| MSSPSGSSRTFPQYQSGSGWNAMLPKRTPRTAAPARRHFKSLVIGAGYTGLAAARRLAELQPQDQVLVVDATVAGEGSAGRNSGFLINLPHNTRMSGHHSPLEVARKQIAMLQSGLDWLAQLSGQGGFDCGWDLAGKYHAAATADGEQSLRGALQQYGQWGVAYSELDRDALQAQLGTRYYRFGYHSMNNVFVQPAALIRGLADSLPENVWLTEDNPVLSIDGSGPYKVRTRGGEFTADNVILANNAFARRLGFLRSRLVTIFTYAGVTPVLSPAQQALLGERDQWGVIPANRLGTTLRRISGGRFMVRSAYSYEAEQPLERMEQLLRDSFVRRYPDLAAHDFEYVWSGSTGLTGNGASFVGAIQPGLYASVGCNGAGVIKGTIYGKLLGEQVAGHRSAMLDDLASFEKPNWLPPEPLRRIGALSTIAYQARKAGLEKLEHHHHHH | soluble |
| MSLSQLDKTCVIIGASHAGVNCAFALRKEGWQGGIVLYDADPSLPYHRPPLSKAYLTSDAGIEKYLLKSAESYEKDNITLRMGIQVSAIDRTHKILTLNDGNTRSYDKLVIATGARPIIPPTKGIKTAKNLYPLRNAADVQNIRQALESNENKRVVIVGAGYIGLEIAASLKNRGAQVTVLEREDRVLARVTAPEMSAYFQQLHVSQGVEIVTNKNVVSIAPRNGFNTITCSDGTQYDADVIVMGVGIRVNLELAEDAGLNISNGICVNAAGQTNDEDIYAIGDCTLHYNPHYNRHIRLESVQNAVDQAKVTAAAICGKEVAYNAIPWFWSDQYDVKLQIVGLSSGYNELLIRREDDGRKFSSWYFKDDELLAVDAINNAKAYMIATKFIKERRKVDKIKLTDASVALSPLNLSAESHEGHHHHHH | soluble |
| MGSDKIHHHHHHMNDINLLPLTSAYLDLILEWRNNPEVRRNMYTSHVISKAEHYAWFKKLESDNTKQCFIFVLNGVPSGFISFVDINLNSKSATWAFYSGNTSVRGIGSLMEVSALNYAFSTLGLHKLSCEVLEFNNMVVRFHEKYGFHVEGVFKKHHFSEGEYWDIYRLAIFNEEWARCKLEINLKKQSISPGSSYRENVFFTNENIIGFSALSGDCNQIHLNKQYAIKNGFDNNLVHGFLVGSVFSKVFGTRFPGDGCIYISQSLSFLSPVYPDDLLEASFVVLSKIGRKLVVETSITNLHSNKKVIDGVAELLISMDSQIGYLNQYL | not soluble |
| MGSDKIHHHHHHMKVKVGVVGATGEVGRTMVKVLEEFNVPVTELRLFASERSVGKEIEFKGEKFKVELLTEESMKWKCDYFLFSAGASVSRKFAPIAAENGVTVIDNSSAFRMEKEIPLVVPEVNAYLLKGYTGIIANPNCSTIQMILSIYKLHEVYGIEEIFVSTYQSVSGAGHKGIEELLAQERGENVMKVFPKPIHRNVIPLIGDIQENLFSQEEMKMVNETRKILNDYSIRVYPTTVRVPVLYGHSEAIMVRLKKPYESLEKVREVIASGEDVVVTDDLITPVDVAGKNETYVCRLRATDERSILFWNVADNIRVGAATNAVRILLKHAEMNGKV | not soluble |
| MKIRYKFGVWMLCLMFPALVWAENAKSICTSFTQQGRQVTFHLADSAALQLQLCSPSVVRIWFSPDGKLQRRNASFAVINEELEDVGTVHVDEQAACYEIFTSKLRIRVNKSPMSIQIFDKYQKLLFSDYADKGHVSEGTKKVEYKTLRRDEHFFGLGEKTGKMDRRGESYKMWNSDKPCYSVVEDPLYKSIPFFMSSYRYGIFLDNTYKTEFKFGTESRDYYSFEAPDGEMIYYFIFGKDYKEILSQYVGLTGKPIMPPKWALGFAQCRGLLTSEKLSREIAEGYRTRGIPCDIIYQDIGWTEHLQDFEWRKGNYGHPKKMLADLKEMGFKVVVSQDPVISQANKKQWEEADRLGYFVKDSTNGKSYDMPWPWGGNCGVVDFTLPAVADWWGTYQQKPIDDGISGFWTDMGEPAWSNEEQTERLVMKHHLGMHDEIHNVYGLTWDKVVKEQFEKRNPNRRVFQMTRAAYAGLQRYTFGWTGDCGNGDDVLQGWGQLANQIPVILSAGLGVIPFTTCDITGYCGDIEDYHPFAELYTRWIQFGAFNPLSRIHHEGDNPVEPWLFGPEAEKNAKEAIELKYRLLPYIYTYAREAHDTGLPIMRPLFLEYPADMETFSTDGQFLFGQELLVAPVVKKGARTKNVYLPEGTWIDYNNKQTVYTGEQWTTVEAPLSCIPMFVKQGSIIPTMPVMNYTHEKPVYPLIFEVFPAPKGEEASFTLYEDEGEDLGYQRDEFAKTPVRFRTEEGGYLLSVGAREGKGYAVPAPRNFIFRMYLKTAPKGVTVQGKKVKKVKPERLEENPDDDTESMVWSWDKATGICSLRMPDRGEESRISLRL | not soluble |
| MDFLARATAIVGNTMVLMRRFGSPGTQAIGQSPAIPEAQKQGIMTLKMPAAKGWAPGHLPTPAPGLKVNAFARDLEHPRWIEVLPSGDVLVAEARQLPTPPKTLLDRAAQATMRRIRALGDSPNRITLLRDPDGRGEAQERETFLENQSQPFGMALVGDTFYVGNTDGIMAFPYRPGATRLEGPGRRLTTFKPGGHWTRSLIVSPDGRRIYAGVGSLSNIGDDGMEAEEGRAAIWELDLASGQARIYASGLRNPVGLAWEPTTRVLWTVVNERDGLGDETPPDYLTSVEEDGFYGWPYCYWNRIVDDRVPQDPAMVARAITPDYALGGHTASLGLCWVPAGTLPGFGDGMAIGQHGSWNRSKLSGYRLIFVPFANGRPSGPPRDILTGFLSDDEKLAYGRPVGVAVGPDRRSLLLADDVGDVIWRVTGALEHHHHHH | not soluble |
| MLAAYRGRVMTRIAVELSLLTFVRSSELRFARWDEFDFDKSLWRIPAKREEIKGVRYSYRGMKMKEEHIVPLSRQAMILLEQLKQISGDKELLFPGDHDATKVMSENTVNSALRAMGYDTKTEVCGHGFRTMARGALGESGLWSEDAIERQLSHSERNSVRAAYIHTSEHLDERRLMVQWWADYLDANKIKPLEHHHHHH | not soluble |
| MSLKITRITVYQIALPLEHPYWLSGGRLKFEVLDATLVKIETGTGLTGWGEGTPWGHTYVPAHGPGIRAGIETMAPFIIGLDPRRGLEIERAMDLALPGHLYAKSPIDMACWDIAGQAAGLSIADLMGGGSRTPRPIASSVGAKTVEETRAVIERYRQRGYVAHSVKIGGDIERDIARVRDVESLRRDGEIVLYDVNRGWTRQQALRVMSATEDLNVMFEQPCESLDDIAAIAGKYAAPVSVDESLVTLQDAARIARDGLAEVFGIKLNRVGGLTKAARMRDIALAHGIDMFVMATGGSVLADAEALHLAATIPDANCHAVWACQDMITLDIAGGRGPRNIDGHLHLTEAPGLGVHPDEDVLGDPVGVYGEGHHHHHH | not soluble |
| VWRTREAVVACIDADPHAEHVLRSAHRLAQQLDCEWHAITIEAPRVAPLPRAGRARLDQALALAETLGAHVETVAGTDMVDAATRYMRRHNITKAVVGRDAWRRRGLSGLL | not soluble |
